The term Kd denotes the free concentration of one partner at which half of the binding sites on the other are occupied at equilibrium, for simple one-to-one binding.

Kd data for 13 sequences are collected here from the Immune Epitope Database (IEDB).

Assay [1] deals with HLA-A*29:02. Briefly: IEDB peptide-MHC binding, purified MHC/direct/fluorescence; filed as Kd, often an IC50 or EC50 that approximates it; ≥ and ≤ were set here for values at or beyond the usual limits of such assays. The note with it: source organism: Mammarenavirus juninense.
The target of assay [2] is HLA-A*01:01. The description is as above.
The next assay addresses HLA-A*80:01. The description is as above.
Assay [3] concerns the target HLA-A*02:01. In words: IEDB peptide-MHC binding, purified MHC/competitive/radioactivity; filed as Kd, often an IC50 or EC50 that approximates it; ≥ and ≤ were set here for values at or beyond the usual limits of such assays.
The target in a further assay is HLA-A*02:06. Described as above.
The target of assay [4] is HLA-A*02:03. The assay is described as above. As to conditions: source organism: Dengue virus 2 Jamaica/1409/1983.
A further assay concerns the target HLA-A*02:17. The assay is described as above.
Assay [5] has as its target HLA-A*68:02. The assay is described as above.
Another assay addresses HLA-A*02:11. In words: IEDB peptide-MHC binding, purified MHC/competitive/fluorescence; filed as Kd, often an IC50 or EC50 that approximates it; ≥ and ≤ were set here for values at or beyond the usual limits of such assays.
The next assay concerns the target HLA-A*02:16. The assay is described as above.
In a further assay the target is HLA-A*26:01. The description is as above.
Another assay concerns the target HLA-A*69:01. The description is as above.
Assay [6] deals with HLA-A*29:02. The description is as above.
The target of another assay is HLA-A*02:12. Described as above.
The target of a further assay is HLA-B*15:01. The assay is described as above.
The next assay concerns the target HLA-A*31:01. Described as above. As to conditions: source organism: Cryptosporidium parvum Iowa II.
The target of another assay is HLA-B*57:01. The description is as above.
Assay [7] has as its target HLA-A*02:01. The assay is described as above.
Another assay addresses HLA-B*51:01. The description is as above.
The target in the next assay is HLA-B*27:03. The description is as above.
The target of another assay is HLA-A*02:19. The assay is described as above.
Another assay addresses HLA-A*24:03. The description is as above.
The next assay has as its target HLA-B*18:01. The assay is described as above.
For assay [8], the target named is HLA-A*02:03. The description is as above.
The target in another assay is HLA-B*39:01. The description is as above.
In a further assay the target is HLA-B*46:01. The description is as above.
Assay [9] has as its target HLA-A*68:02. The assay is described as above.
The target in assay [10] is HLA-A*01:01. In words: IEDB peptide-MHC binding, purified MHC/competitive/radioactivity; filed as Kd, often an IC50 or EC50 that approximates it; ≥ and ≤ were set here for values at or beyond the usual limits of such assays. As to conditions: source organism: Dengue virus 4 Philippines/H241/1956.
The target of another assay is HLA-A*03:01. In words: IEDB peptide-MHC binding, purified MHC/competitive/fluorescence; filed as Kd, often an IC50 or EC50 that approximates it; ≥ and ≤ were set here for values at or beyond the usual limits of such assays. As to conditions: source organism: Entamoeba histolytica HM-1:IMSS.
The next assay addresses HLA-B*15:17. The assay is described as above. As to conditions: source organism: Entamoeba histolytica HM-1:IMSS.
Where [11] appears, read: source organism: Mammarenavirus juninense.
[12] abbreviates: source organism: Dengue virus 2 Jamaica/1409/1983.
Where [13] appears, read: source organism: Cryptosporidium parvum Iowa II.
Setting [14] is: source organism: Yersinia pestis.
[15] abbreviates: source organism: Dengue virus 4 Philippines/H241/1956.
The mark [16] stands for this setting: source organism: Mammarenavirus lassaense.
Setting [17] is: source organism: Escherichia coli O157:H7.
Where [18] appears, read: source organism: Entamoeba histolytica HM-1:IMSS.

Take VSDRPVMRY: the figures for the Kd with HLA-A*29:02 [1], in the assay with HLA-A*01:01 [2] (setting [11]) and with HLA-A*80:01 (setting [11]) were 117 nM, 185 nM and 360 nM, respectively.
As for TMTDDIGMGV, the Kd with HLA-A*02:01 [3] (setting [12]) turned out to be 21.3 nM; in the assay with HLA-A*02:06 (setting [12]), 5.64 nM; in the assay with HLA-A*02:03 [4], 7.59 nM; with HLA-A*02:17 (setting [12]), 313 nM; with HLA-A*68:02 [5] (setting [12]) it was 116 nM.
In the case of RGRKPIFRK, the Kd in the assay with HLA-A*02:11 (setting [13]), with HLA-A*02:16 (setting [13]), with HLA-A*26:01 (setting [13]), with HLA-A*69:01 (setting [13]), with HLA-A*29:02 [6] (setting [13]) and with HLA-A*02:12 (setting [13]) was at least 20000 nM in each case. In addition, the Kd with HLA-B*15:01 (setting [13]) is at least 20000 nM; with HLA-A*31:01, 53.2 nM; in the assay with HLA-B*57:01 (setting [13]), at least 20000 nM; with HLA-A*02:01 [7] (setting [13]), at least 20000 nM; in the assay with HLA-B*51:01 (setting [13]), at least 20000 nM; with HLA-B*27:03 (setting [13]) it was at least 20000 nM. The dissociation constant (Kd) with HLA-A*02:19 (setting [13]), with HLA-A*24:03 (setting [13]), with HLA-B*18:01 (setting [13]), with HLA-A*02:03 [8] (setting [13]), with HLA-B*39:01 (setting [13]) and in the assay with HLA-B*46:01 (setting [13]) was at least 20000 nM throughout. The dissociation constant (Kd) with HLA-A*68:02 [9] (setting [13]) was at least 20000 nM.
In the case of DLRPYGLIK, the Kd in the assay with HLA-A*01:01 [2] (setting [14]) and with HLA-A*80:01 (setting [14]) was at least 20000 nM throughout.
Take FIDGISLGL: the Kd with HLA-A*02:01 [3] (setting [15]) is 18.9 nM; with HLA-A*02:06 (setting [15]), 32.4 nM; with HLA-A*01:01 [10], 1520 nM; in the assay with HLA-A*02:17 (setting [15]), 56.1 nM.
For DTPGERNPY, the Kd with HLA-A*01:01 [2] (setting [16]) and in the assay with HLA-A*80:01 (setting [16]) was at least 20000 nM throughout.
Turning to RVIRTVREK, the Kd with HLA-A*01:01 [2] (setting [17]) and with HLA-A*80:01 (setting [17]) was at least 20000 nM in each case.
For MTLWYMWQV, the Kd in the assay with HLA-A*02:01 [3] (setting [15]) is 13.7 nM; in the assay with HLA-A*02:06 (setting [15]) it was 2.67 nM; in the assay with HLA-A*02:17 (setting [15]), 27.4 nM; with HLA-A*68:02 [5] (setting [15]) it was 11.3 nM.
YVVIAILTV: the dissociation constant (Kd) in the assay with HLA-A*02:01 [3] (setting [12]) was 254 nM; with HLA-A*02:06 (setting [12]), 12.4 nM; in the assay with HLA-A*02:17 (setting [12]), 509 nM; with HLA-A*68:02 [5] (setting [12]) it was 26.3 nM.
LAIDRDDLY came in with a Kd with HLA-A*29:02 [6] (source organism: Mycobacterium tuberculosis variant bovis BCG str. Pasteur 1173P2) of 5.3 nM.
On to MVLAFITFL, for which the Kd in the assay with HLA-A*02:01 [3] (setting [15]) came out at 16.9 nM; with HLA-A*02:06 (setting [15]), 3.45 nM; with HLA-A*02:17 (setting [15]), 3.99 nM; with HLA-A*68:02 [5] (setting [15]) it was 19.2 nM.
For the sequence AIDLDPVVY, in the assay with HLA-A*80:01 (source organism: Dengue virus 1 Singapore/S275/1990), the Kd was at least 5000 nM.
For IEAKINVAD, the Kd with HLA-A*03:01, with HLA-A*02:11 (setting [18]), with HLA-A*02:16 (setting [18]), with HLA-A*26:01 (setting [18]), in the assay with HLA-A*69:01 (setting [18]) and with HLA-A*29:02 [6] (setting [18]) was at least 20000 nM each time. Also, the Kd with HLA-A*02:12 (setting [18]), in the assay with HLA-B*15:01 (setting [18]), with HLA-B*57:01 (setting [18]), with HLA-A*02:01 [7] (setting [18]), in the assay with HLA-B*51:01 (setting [18]) and with HLA-B*27:03 (setting [18]) was at least 20000 nM throughout. Moreover, the dissociation constant (Kd) with HLA-A*02:19 (setting [18]) is at least 20000 nM; with HLA-A*24:03 (setting [18]) it was at least 20000 nM; in the assay with HLA-B*18:01 (setting [18]), 389 nM; with HLA-A*02:03 [8] (setting [18]), at least 20000 nM; in the assay with HLA-B*39:01 (setting [18]) it was at least 20000 nM; in the assay with HLA-B*15:17, at least 20000 nM. Further, the Kd with HLA-B*46:01 (setting [18]) and in the assay with HLA-A*68:02 [9] (setting [18]) was at least 20000 nM throughout.
